Positions count from the first letter of the chain named. Read-outs that look alike come from different tables or passages of the source. Where no end group is shown, it is not given here.
How the values were obtained:
[1] = biological target: T1, peptide H6 (AP33 mimotope) (not fully specified (residue 16, C-terminus); printed as VELRNLGGTWRPGSGK-biotin; also: biotin at C-terminal GSGK, site not given here); assay: peptide ELISA, biotinylated peptide on streptavidin, COS7 supernatant, OD 655 nm
T1 construct: Mimotope for AP33 identified by phage display; captured on streptavidin plates; also called mimotope H6; H6 mimotope
T1 peptide: VELRNLGGTWRPGSGK

Peptide D3 = biological target: T2, Peptide D3 (also: C-terminal linker GSGK-biotin, biotin attachment not given here); assay: as above
T2 peptide: QLINTNGSWHINGSGK

E2 peptide B1 [2] = biological target: T3, E2 peptide B1 (not fully specified (residue 16, C-terminus); also: biotin at C-terminal GSGK, site not given here); assay: as above
T3 peptide: NLINTNGSWHINGSGK

[3] = biological target: T4, HCV E2 as part of the E1E2 heterodimer expressed on the surface of 293T cells (Hepatitis C virus (genotype )); assay: Scatchard analysis, 125I-antibody competition with unlabeled antibody on E1E2-transfected 293T cells
T4 construct: whole, on cells; also called E1E2 Scatchard; cell surface expressed E2

[4] = biological target: T5, soluble HCV E2 (sE2661), HIS-tagged, baculovirus expressed (Hepatitis C virus (genotype )); assay: BIAcore SPR, antibody captured on anti-human Fc chip, sE2 1.56-50 nM injected, 1:1 Langmuir fit
T5 construct: extracellular domain; also called soluble E2

[5] = biological target: HCV E1E2 glycoproteins of isolate 1B5.23 on HCVpp (Hepatitis C virus genotype 1); assay: cell-based or functional assay
[6] = biological target: HCV E1E2 glycoproteins of genotype 3a F4/2-35 on HCVpp (Hepatitis C virus genotype 3a); assay: cell-based or functional assay
[7] = biological target: HCV E1E2 glycoproteins of isolate 1A20.8 on HCVpp (Hepatitis C virus genotype 1); assay: cell-based or functional assay
[8] = biological target: HCV E1E2 glycoproteins of isolate 2B1.1 on HCVpp (Hepatitis C virus genotype 2); assay: cell-based or functional assay
[9] = biological target: HCV E1E2 glycoproteins of isolate 2A2.4 on HCVpp (Hepatitis C virus genotype 2); assay: cell-based or functional assay
[10] = biological target: HCV E1E2 glycoproteins of isolate 5.15.11 on HCVpp (Hepatitis C virus genotype 5); assay: cell-based or functional assay
[11] = biological target: HCV E1E2 glycoproteins of isolate 4.21.16 on HCVpp (Hepatitis C virus genotype 4); assay: cell-based or functional assay
[12] = biological target: HCV E1E2 glycoproteins of isolate 6.5.8 on HCVpp (Hepatitis C virus genotype 6); assay: cell-based or functional assay
[13] = biological target: HCV E1E2 glycoproteins of genotype 2a JFH1 on HCVpp (Hepatitis C virus genotype 2a, UniProt Q99IB8 384-750; Q99IB8 192-383); assay: cell-based or functional assay
Chain of HCV E1E2 glycoproteins of genotype 2a JFH1 on HCVpp (Q99IB8 384-750 limits assumed, chain 1 of 2): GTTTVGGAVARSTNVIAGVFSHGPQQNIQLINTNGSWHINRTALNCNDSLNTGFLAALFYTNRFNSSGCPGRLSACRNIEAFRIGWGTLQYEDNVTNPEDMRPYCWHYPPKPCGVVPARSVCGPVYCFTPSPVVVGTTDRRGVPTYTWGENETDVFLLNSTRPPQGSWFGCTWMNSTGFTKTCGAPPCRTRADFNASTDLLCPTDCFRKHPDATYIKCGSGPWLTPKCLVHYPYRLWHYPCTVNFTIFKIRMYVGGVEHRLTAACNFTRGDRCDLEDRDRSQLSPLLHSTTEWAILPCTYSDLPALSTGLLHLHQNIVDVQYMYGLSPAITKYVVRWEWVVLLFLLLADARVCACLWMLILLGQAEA
Chain of HCV E1E2 glycoproteins of genotype 2a JFH1 on HCVpp (Q99IB8 192-383 limits assumed, chain 2 of 2): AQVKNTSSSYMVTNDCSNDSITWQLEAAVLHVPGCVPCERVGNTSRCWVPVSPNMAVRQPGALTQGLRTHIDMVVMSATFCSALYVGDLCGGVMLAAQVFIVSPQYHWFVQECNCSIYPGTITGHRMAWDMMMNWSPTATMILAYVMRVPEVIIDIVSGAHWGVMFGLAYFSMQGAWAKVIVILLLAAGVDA

[14] = biological target: HCV E1E2 glycoproteins of genotype 1b (Con1) (Hepatitis C virus genotype 1b (Con1), UniProt Q9WMX2 384-746; Q9WMX2 192-383); assay: cell-based or functional assay
Chain of HCV E1E2 glycoproteins of genotype 1b (Con1) (Q9WMX2 384-746 limits assumed, chain 1 of 2): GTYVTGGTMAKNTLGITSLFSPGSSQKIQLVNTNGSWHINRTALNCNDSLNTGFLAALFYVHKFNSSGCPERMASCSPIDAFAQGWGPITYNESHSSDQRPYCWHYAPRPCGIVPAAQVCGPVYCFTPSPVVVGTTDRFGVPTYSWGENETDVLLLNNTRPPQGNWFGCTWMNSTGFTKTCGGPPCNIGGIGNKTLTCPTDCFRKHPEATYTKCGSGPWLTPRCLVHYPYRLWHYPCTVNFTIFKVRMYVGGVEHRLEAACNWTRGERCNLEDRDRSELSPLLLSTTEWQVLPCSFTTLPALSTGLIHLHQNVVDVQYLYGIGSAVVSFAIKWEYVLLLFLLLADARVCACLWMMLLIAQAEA
Chain of HCV E1E2 glycoproteins of genotype 1b (Con1) (Q9WMX2 192-383 limits assumed, chain 2 of 2): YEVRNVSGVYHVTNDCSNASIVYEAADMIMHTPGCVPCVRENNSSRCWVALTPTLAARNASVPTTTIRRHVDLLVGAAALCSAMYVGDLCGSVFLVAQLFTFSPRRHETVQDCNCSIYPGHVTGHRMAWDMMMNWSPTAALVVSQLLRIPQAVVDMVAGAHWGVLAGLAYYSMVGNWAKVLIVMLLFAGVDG

[15] = biological target: HCV E1E2 glycoproteins of genotype 2a (J6) (Hepatitis C virus genotype 2a (J6), UniProt P26660 384-750; P26660 192-383); assay: cell-based or functional assay
E2 peptide B1 [16] = biological target: T3, E2 peptide B1; assay: peptide ELISA, biotinylated peptide on streptavidin, COS7 supernatant, OD 655 nm

B1: RHb-h/Vl (humanized heavy chain RHb-h with chimeric AP33 light chain) (antibody, V domains shown)
VH: QVQLQESGPGLVKPSETLSLTCTVSGDSITSGYWNWIRQPPGRALEYMGYISYSGSTYYNLSLRSRITISRDTSKNQYSLRLSSVTAADTAMYYCALITTTTYAMDYWGQGTTVTVS
VL: NIVLTQSPVSLAVSLGQRATISCRASESVDGYGNSFLHWFQQKPGQPPKLLIYLASNLNSGVPARFSGSGSRTDFTLTIDPVEADDAATYYCQQNNVDPWTFGGGTKLEIK
notes: also called RHb-h/V1; the humanized heavy chain
- EC50 (read off the curve) [1]: ~20 ng/mL
- EC50 (read off the curve) (Peptide D3): ~20 ng/mL
- binding result (E2 peptide B1 [2]): no binding (tested: about 500 ng/ml)

B2: humanized AP33 antibody RH-C/RK2b (antibody, V domains shown)
VH: QVQLQESGPGLVKPSETLSLTCTVSGDSITSGYWNWIRQPPGRALEWMGYISYSGSTYYNLSLRSRITISRDTSKNQYSLRLSSVTAADTAMYYCALITTTTYAMDYWGQGTTVTVSS
VL: EIVLTQSPSSLSASVGDRVTITCRASESVDGYGNSFLHWFQQKPGKAPKLLIYLASNLNSGVPSRFSGSGSGTDFTLTISSLQPEDFATYYCQQNNVDPWTFGQGTKLEIK
notes: also called RH-C antibody
- Kd [3]: 5 nM
- Kd [4]: 3.8 nM
- IC50 of HCVpp infection of Huh-7 cells (luciferase) [5]: 0.9 µg/mL
- IC90 of HCVpp infection of Huh-7 cells (luciferase) [5]: 8.3 µg/mL
- IC50 of HCVpp infection of Huh-7 cells (luciferase) [6]: < 0.41 µg/mL
- IC90 of HCVpp infection of Huh-7 cells (luciferase) [6]: 2.15 µg/mL
- IC50 of HCVpp infection of Huh-7 cells (luciferase) [7]: 1.6 µg/mL
- IC90 of HCVpp infection of Huh-7 cells (luciferase) [7]: 15 µg/mL
- IC50 of HCVpp infection of Huh-7 cells (luciferase) [8]: 3 µg/mL
- IC90 of HCVpp infection of Huh-7 cells (luciferase) [8]: > 15 µg/mL
- IC50 of HCVpp infection of Huh-7 cells (luciferase) [9]: 0.51 µg/mL
- IC90 of HCVpp infection of Huh-7 cells (luciferase) [9]: 6 µg/mL
- IC50 of HCVpp infection of Huh-7 cells (luciferase) [10]: 0.053 µg/mL
- IC90 of HCVpp infection of Huh-7 cells (luciferase) [10]: 0.82 µg/mL
- IC50 of HCVpp infection of Huh-7 cells (luciferase) [11]: < 0.41 µg/mL
- IC90 of HCVpp infection of Huh-7 cells (luciferase) [11]: 0.92 µg/mL
- IC50 of HCVpp infection of Huh-7 cells (luciferase) [12]: < 0.41 µg/mL
- IC90 of HCVpp infection of Huh-7 cells (luciferase) [12]: 1.8 µg/mL
- IC50 of HCVpp infection of Huh-7 cells (luciferase) [13]: 0.64 µg/mL
- IC90 of HCVpp infection of Huh-7 cells (luciferase) [13]: 7 µg/mL
- EC50 of HCVpp entry into Huh-7.5 cells (luciferase) [14]: 0.511 µg/mL
- EC50 of HCVpp entry into Huh-7.5 cells (luciferase) [15]: 0.793 µg/mL
- neutralization of HCVcc infection of Huh-7.5 cells (RT-qPCR), fold against AP33 [15]: ≥ 4.7 fold

B3: AP33 RH-B/RK2bc (antibody, V domains shown)
VH: B2 VH with T30S, W47Y
VL: B2 VL with G72R
- binding result (E2 peptide B1 [16]): no binding (tested: about 800 ng/ml)
